From patent US11655307B2, “Anti-doublecortin-like kinase 1 antibodies and methods of use” (The Board of Regents of the University of Oklahoma, priority 2017, dated 2023)
“Also recorded” adds a separate entry of the source.

Assays:
[1] = system: Caki-2 cells overexpressing DCLK1; assay: Proliferation/drug resistance assay (MTT), DCLK1-overexpressing cells; type: cell-based, human; conditions: increasing drug concentrations; FIG. 16-17
Source text: This gBlock also contains a part of human DCLK1 isoform 1 sequence shared with isoform 2, with the addition of the unique DCLK1 isoform 2 C-terminal sequence (NCBI Reference Sequence: XM_005266592.2). The vector containing DCLK1 isoform 1 and the gBlock were digested with EcoRI and Scat Both digested vector and gBlock fragment were gel purified and DCLK1 isoform 2 was constructed by ligating the digested vector with the synthetic DNA fragment. The ligated cDNA product was confirmed by automatic sequencing. […] RCC cell line Caki-2 was infected with Lentivirus containing human DCLK1 cDNA sequence to overexpress DCLK1 Isoform 2/long-α (caki2-dsRed-DCLK1) or red fluorescent protein (RFP) cDNA as control (caki2-dsRed) and selected to 100% expression with puromycin.
Cells (5000/well) were seeded into a 96-well tissue culture plate in quadruplicate. […] 48 or 72 h after incubation, 10 μL of MTT (RND Systems) was added to each well and cells were incubated at 37° C. for 4 h. […] In order to fully dissolve the precipitated MTT crystals, the plate was placed on a shaker at low speed for 1 min and a microplate reader was used to read the OD570 for each well.
The high level of expression of vascular endothelial growth factor (VEGF) and its receptors in RCC supports its highly vascular nature making VEGF and its receptors therapeutic targets. […] Given the tight relationship between sternness and the response to targeted therapies and its importance in patient survival, we further investigated DCLK1's role in this process. Caki-2 cells overexpressing DCLK1 were seeded into 96-well plates, allowed to attach overnight, and then treated with increasing concentrations of sunitinib or sorafenib. Relative cell viability was then evaluated by MTT assay.
The intracellular serine/threonine kinase mTOR is involved in a wide range of pathways and plays an essential role in cellular metabolism and cancer progression.

[2] = system: pancreatic cancer SW1990 tumor xenograft; assay: SW1990 xenograft tumor study; type: in vivo, mice; conditions: 25 mg/kg biweekly
Experimental: 0.5×10^6 cells were injected into the flanks of 8 week-old athymic nude mice and the resulting tumors were allowed to grow to an average volume 100 mm^3. Upon reaching this volume we began delivering CBT-15 or isotype control mAB at 25 mg/kg biweekly. Tumor volume measurements were taken approximately every other day. At the end of 4 weeks from the start of injections animals were culled and tumors were excised, measured, and weighed.

ACHN cells = assay: In vitro PBMC-killing assay (Caspase-3/7 Glo), renal cancer cells; type: cell-based; conditions: antibody pretreatment, then 72 h co-culture with human PBMC; FIG. 24A
Experimental: ACHN cells were seeded into a 96-well plate at 5×10^4 cells per well and allowed to attach overnight at 37° C. CBT-15 mAB or isotype control mAB were added to the ACHN wells at concentrations of 100 μg/mL in quadruplicate and incubated at 37° C. for 72 h. After mAB treatment, the media was replaced and 1.25×10^5 primary human PBMC cells (ATCC) were co-incubated with the ACHN cells for 72 h. Finally, luminescent CaspaseGlo® 3/7 activity (Promega) assay was performed according to the manufacturer's protocol as a surrogate measure of apoptosis.
(§1) To further assess the functional relevance of these findings we seeded ACHN renal and AsPC-1 pancreatic cancer cells into 96 wells and subjected them to antibody-dependent cell-mediated cytotoxicity assay. Briefly, 10^4 cancer cells were seeded into each well after 48 hours pretreatment with either isotype control or CBT-15 monoclonal antibody. Human peripheral blood […] were then seeded into each well at 10^5 cells per well and co-cultured for 72 h. After 72 h Caspase-3/7 Glo assay was performed to assess apoptosis.

[3] = system: AsPC-1 pancreatic cancer cells; assay: In vitro PBMC-killing assay (Caspase-3/7 Glo), pancreatic cancer cells; type: cell-based; conditions: 48 h antibody pretreatment, then 72 h co-culture with human PBMC; FIG. 24B
Experimental: as §1

[4] = molecular target: T1, DCLK1 isoform 4 purified protein (Homo sapiens, UniProt O15075); assay: Western blotting against purified DCLK1 protein; type: binding; conditions: FIG. 1
T1 sequence (O15075 1-433 isoform O15075-4): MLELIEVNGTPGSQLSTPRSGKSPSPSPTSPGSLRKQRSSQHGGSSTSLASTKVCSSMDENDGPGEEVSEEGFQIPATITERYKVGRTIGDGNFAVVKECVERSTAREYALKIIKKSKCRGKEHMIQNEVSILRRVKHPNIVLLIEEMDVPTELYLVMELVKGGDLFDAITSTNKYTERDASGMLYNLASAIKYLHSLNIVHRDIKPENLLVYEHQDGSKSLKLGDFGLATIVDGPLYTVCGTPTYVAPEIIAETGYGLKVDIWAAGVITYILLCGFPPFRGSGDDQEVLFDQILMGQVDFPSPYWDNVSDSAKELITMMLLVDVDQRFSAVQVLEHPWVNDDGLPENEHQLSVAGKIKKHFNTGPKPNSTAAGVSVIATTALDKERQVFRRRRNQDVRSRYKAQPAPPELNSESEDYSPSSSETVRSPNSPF
Experimental: Lysates from ACHN or CAKI2 cells were subjected to Western blot analysis. The concentration of total proteins was determined by BCA protein assay (Pierce, Rockford, Ill.). 40 μg of protein lysates were size separated on a 4%-20% SDS polyacrylamide gel and transferred onto a PVDF membrane. The membrane was blocked in 1% caseine for 30 minutes and probed with primary antibody α-DCLK1 (ABCAM, ab31704), HIF-1α (ABCAM, ab2185), Vimentin (Santa Cruz, S.C.-7557), ALDH1A1 (ABCAM, ab52492), β-Actin (ABCAM, ab8226) overnight at 4° C. The membrane was then washed 3 times with TBST and probed with species-appropriate secondary antibody (cw800-conjugated) for 30 mins at room temperature protected from light. Finally, proteins were detected using a LICOR Odyssey Infrared Imager and density quantification was performed in Image Studio Lite (LICOR) where appropriate.
The resulting monoclonal antibodies produced from this screening process included an Immunoglobulin A species (CBT-15A) and an Immunoglobulin G213 species (CBT-15G). Following purification of the resulting antibodies, their affinity for DCLK1 was confirmed by Western blotting against DCLK1 isoform 4 purified protein (FIG. 1). […] The ability of these antibodies to bind extracellular DCLK1 was further apparent in FACS sorting experiments. […]

CO[C@H]1C[C@@H]2CC[C@@H](C)[C@@](O)(O2)C(=O)C(=O)N2CCCC[C@H]2C(=O)O[C@H]([C@H](C)C[C@@H]2CC[C@@H](OC(=O)C(C)(CO)CO)[C@H](OC)C2)CC(=O)[C@H](C)/C=C(\C)[C@@H](O)[C@@H](OC)C(=O)[C@H](C)C[C@H](C)/C=C/C=C/C=C/1C [temsirolimus]
sensitivity of DCLK1-overexpressing cells to the drug compared to dsRed vector control cells (relative cell viability, MTT) [1]: significantly decreases sensitivity

CO[C@H]1C[C@@H]2CC[C@@H](C)[C@@](O)(O2)C(=O)C(=O)N2CCCC[C@H]2C(=O)O[C@H]([C@H](C)C[C@@H]2CC[C@@H](OCCO)[C@H](OC)C2)CC(=O)[C@H](C)/C=C(\C)[C@@H](O)[C@@H](OC)C(=O)[C@H](C)C[C@H](C)/C=C/C=C/C=C/1C [everolimus]
sensitivity of DCLK1-overexpressing cells to the drug compared to dsRed vector control cells (relative cell viability, MTT) [1]: significantly decreases sensitivity

CNC(=O)c1cc(Oc2ccc(NC(=O)Nc3ccc(Cl)c(C(F)(F)F)c3)cc2)ccn1 [sorafenib]
sensitivity of DCLK1-overexpressing cells to the drug compared to dsRed vector control cells (relative cell viability, MTT) [1]: did not elicit significant resistance; also recorded: not resistant

B1: CBT-15G: Anti-DCLK1 mouse monoclonal antibody, Immunoglobulin G213 species, raised against immunogen no. 8; VH SEQ ID NO:24, VL SEQ ID NO:26 (antibody, V domains shown)
VH: EVQLQQSGTALARPGASVKMSCKASGYSFTSYWMHWVKQRPGQGLEWIGAIYPGKSDTSYNQKFKGKAKLTAVTSASTAYMELSSLTNEDSAVYYCTRYGKGAMDYWGQGTSVTVSS
VL: DIVLTQSHKFMSTSVGDRVTITCKASQDVNTAVAWYQKKPGQSPKLLIYWASTRLTGVPDRFTGSGSGTDYTLTISSVQAEDLALYYCQQHYSTPYTFGGGTKLEIK
modifications: HC variable AA sequence of CBT-15G; LC variable AA sequence of CBT-15G
excised tumor volume vs isotype mAB ([2]; end of treatment, FIG. 29, 32): significant decrease | excised tumor weight vs isotype mAB ([2]; end of treatment, FIG. 30, 33): decrease | xenograft tumor growth (tumor volume over time) vs isotype mAB ([2]; athymic nude mice, 4 weeks, FIG. 28, 31, 25 mg/kg): strongly inhibited; also recorded: substantially reduced | PBMC mediated apoptosis, Caspase-3/7 activity relative to isotype control (ACHN cells): can sensitize | immune cell mediated cell killing, Caspase-3/7 activity relative to isotype control [3]: significantly increased; also recorded: increase | affinity for DCLK1 by Western blot (detection of purified DCLK1 protein) [4]: confirmed; also recorded: detect
